The text below walks through data of patent US20170081379A1 (Dana-Farber, published 2017).

The target in the experiment is T1, recombinant HDM2 17-125 (human, UniProt Q00987 17-125).
T1 construct: range 17-125
The experiment can be described thus: fluorescence polarization competition: unlabeled peptide titrated against FITC-WT p53 14-29 (25 nM) bound to HDM2 17-125. As for the experimental part:
FIG. 12 Competition by fluorescence polarization. Fluoresceinated, wild type p53₁₄₋₂₉ (25 nM) was incubated with recombinant HDM2₁₇₋₁₂₅. Unlabeled SAH-p53s were titrated into the mixture, and displacement of the labeled ligand was measured by fluorescence polarization.
The ability of various SAH-p53s to compete with wild-type p53₁₄₋₂₉ for binding to HDM2₁₇₋₁₂₅ was assessed as follows. Fluoresceinated, wild type p53₁₄₋₂₉ (25 nM) was incubated with recombinant HDM2₁₇₋₁₂₅. Unlabeled SAH-p53s were titrated into the mixture, and displacement of the labeled ligand was measured by fluorescence polarization.
A general note: Fluorescence polarisation rises when a labelled molecule tumbles more slowly, as on binding a larger partner.

Bridge positions count the residues as written; N and C are the ends. Square brackets hold non-standard residues; d marks the D form. R8 = C=CCCCCCC[C@@](C)(N)C(=O)O; S5 = C=CCCC[C@](C)(N)C(=O)O

B1: SAH-p53-4 (peptide)
peptide: Ac-LSQETF[R8]DLWKLL[S5]EN-NH2
modifications: staple 7-14
notes: the FITC-labeled form is m4; also called unlabeled SAH-p53-4; Ac-SAH-p53-4
Turning to B1, the binding result is “binds”.
